# Assay results: the RNAGym collection of RNA variant scans (doi:10.1073/pnas.2313332121)
# Variants at the floor of the assay were thinned out.
# B1: TPR 5TU (parent)
# chain: GGAUCUUCUCGAUCUAACAAAAAAGACAAAUCUGCCACAAAGCUUGAGAGCAUCUUCGGAUGCAGAGGCGGCAGCCUUCGGUGGCGCGAUAGCGCCAACGUUCUCAACUAUGACACGCAAAACGCGUGCUCCGUUGAAUGGAGUUUAUCAUG
# Variants of: B1
# Assay: polymerase ribozyme fitness, log enrichment relative to wild type (log ratio); higher = more active; in vitro selection for triplet polymerase activity
# How it was run: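 To select mutant libraries of each subunit of a heterodimeric triplet polymerase ribozyme, built by PCR and transcribed, each was annealed with a biotinylated primer, partner subunit and triplets, then incubated frozen at −7 °C. Extended constructs were gel-excised, captured on streptavidin beads and amplified by RT-PCR, in one round carried out in triplicate. Illumina sequencing of input and output libraries kept genotypes with ≥10 input reads and ≥1 read per output. Fitness is the base-2 logarithm of genotype enrichment relative to wild-type enrichment, from inverse-variance-weighted replicate averages.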
row,Variant,polymerase ribozyme fitness (log ratio)
1,U31C A47G A49U G94A A119G G136C,-4.04
2,C32G C57U C95U A142C U144G,≤ -4.2
3,U31C U53G,-0.735
4,U31C U55A U101C,0.401
5,U31G C123U,0.732
6,U31G G58C G140C,-4
7,U31C U44A C54A C76G C95G C105G A107G,-4.01
8,U31G G62C G88C A119G,≤ -4.2
9,C32A A41C G94U C103A C118U,≤ -4.2
10,U31C C79G U139C U144G,≤ -4.2
11,U31G A37C G126U,-2.65
12,C32A C85U A142U,≤ -4.2
13,U31C G58A G94U G143U,-2.9
14,C32G A37G C38U U56A A119C,≤ -4.2
15,U31C A60U A110G C118G U144C,-3.59
16,U31G C87U U127A,-3.89
17,U31G G50A C87A U135A,≤ -4.2
18,U31G U56G C93G C96G G133C,≤ -4.2
19,U31G C57U G83C C87A,≤ -4.2
20,C32G C38G C93G G133U,-3.72
21,U31G G50A,-1.51

row,Variant,polymerase ribozyme fitness (log ratio)
1,C32A C51A C54A G92A A97U U146C,≤ -4.2
2,U31G C93G G133U U134C,≤ -4.2
3,C32A A41C A66C C95U C99G G117U A150C,≤ -4.2
4,C32A G84A,-3.57
5,C32A A40C G84A,≤ -4.2
6,C32A U82C,≤ -4.2
7,C32G A49C C118U,≤ -4.2
8,U31C A60C G92A C99A,≤ -4.2
9,U31G A40C G42A G50A C54U C72U G94U,≤ -4.2
10,U31C U55A G136U A150G,-1.81
11,U31G C54U U101C,-0.138
12,U31G C35U A60U A115G,-3.22
13,C32A C96U,-4.11
14,U31C G83C G140C,-4.18
15,C32G A49C,≤ -4.2
16,C32A G50U U55A C85A,≤ -4.2
17,U31C G86C C93U A98U,-1.96
18,U31C U56A G58C A98U C149U,0.414
19,C32G C36U A64U C96U A107C G117U U134C A150C,≤ -4.2
20,U31G C123G A142G,-1.12
21,U31C C57G C87U U102A G136A,-0.199

row,Variant,polymerase ribozyme fitness (log ratio)
1,C32A,-2.96
2,C32G,-3.19
3,C32A U45G G46A C99G C103G U127C U148G,≤ -4.2
4,U31G U55A A142U,-1.54
5,C32A C69G A98U,-1.51
6,U31C U53G G67C C76G G83A,-3.62
7,C32A G88C G141C,≤ -4.2
8,U31G A41C C75U C85G G88C A137U,≤ -4.2
9,U31C C36A C96U A150G,≤ -4.2
10,C32A G83A G88C C116G G140C,-4.04
11,C32G A49C A142U,≤ -4.2
12,C32G C79U C96G A142C,-3.79
13,C32G A49U G74U U77G A89U,≤ -4.2
14,C32G A40U C57U U135G,≤ -4.2
15,U31G C32U C75G A98G A121C G133A,≤ -4.2
16,U31C C85U,0.604
17,U31G C54A C95A A142U,-3.34
18,U31C G46C G92A,-3.48
19,U31C C69U G86U C96U A142G,-2.99
20,U31G G59U C69A U134G G136U,-3.84
21,U31G U53G G70U A89U C93U C114A C123G U135C G152U,≤ -4.2

row,Variant,polymerase ribozyme fitness (log ratio)
1,U31G U56A G136A A147C,-0.143
2,U31G A52U A60G A98G,-4
3,C32G A47C U55A U56G G67U G88A G100C C105U A137U G141U,≤ -4.2
4,U31C C35U G68C G92U U104A A115U A119C G143A,≤ -4.2
5,U31C C96G A137U,≤ -4.2
6,C32A C38U G128C U135A,≤ -4.2
7,U31G A37U A49C C93A A106G G117C U145C U148A,≤ -4.2
8,C32A C35U C69A C75U A150G,≤ -4.2
9,U31C A60C C95A C99G A122G,-3.66
10,C32A U61A C63G A66U U77G,≤ -4.2
11,U31G C95A C123G,0.831
12,C32A U44A A60C C79G G92U,≤ -4.2
13,U31G A60G G152U,-3.16
14,U31C C63G G83A C96U,1.61
15,C32G A37G C95U,-3.7
16,U31C C54U G71U C96U,-3.79
17,C32G C51U G94U,≤ -4.2
18,C32A U53G C85U C96G G136C,≤ -4.2
19,C32G A41U A91U A107G C125G U135C,≤ -4.2
20,U31G G42U G58U G59A G86U U104G C131G G136C,≤ -4.2
